Laboratory results taken from patent US20240247080A1, “GLP1/GIP/NPY2 RECEPTOR TRIPLE AGONISTS” (Boehringer Ingelheim International GmbH, priority 2022, published 2024).
Starred links: 1 amine or outer side, 2 acyl side, 3 side chain; linkers in the order of their positions; H or OH if unused. Non-standard residues stand in square brackets, D forms with d. Groups on a side chain read outwards from the residue. No end group written: not given here. *: point of attachment. C20 diacid = O=C(O)CCCCCCCCCCCCCCCCCCC(=O)*; C18 diacid = O=C(O)CCCCCCCCCCCCCCCCC(=O)*; γGlu = O=C(O)[C@H](CCC(=O)[*:2])N[*:1]; εLys = N[C@@H](CCCCN[*:1])C(=O)[*:2]; AEEA = NCCOCCOCC(=O)O; Aib = CC(C)(N)C(=O)O; Ahx = NCCCCCC(=O)O; OEG = OEG spacer

T1: human neuropeptide Y2 receptor (human, UniProt P49146 1-381)
T1 sequence (looked up): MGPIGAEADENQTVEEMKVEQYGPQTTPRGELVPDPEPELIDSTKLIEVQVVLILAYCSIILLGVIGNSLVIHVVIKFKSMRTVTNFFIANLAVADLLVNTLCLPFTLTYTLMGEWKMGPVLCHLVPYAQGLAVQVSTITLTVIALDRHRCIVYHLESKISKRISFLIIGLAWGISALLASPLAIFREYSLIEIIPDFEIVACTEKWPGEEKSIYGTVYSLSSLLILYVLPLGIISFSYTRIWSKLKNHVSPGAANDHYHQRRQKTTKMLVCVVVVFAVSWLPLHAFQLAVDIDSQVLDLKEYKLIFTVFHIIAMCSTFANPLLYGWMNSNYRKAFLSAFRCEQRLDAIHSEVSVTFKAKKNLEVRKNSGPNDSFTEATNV

T2: human GIP receptor (human, UniProt P48546 22-466)
T2 sequence (looked up): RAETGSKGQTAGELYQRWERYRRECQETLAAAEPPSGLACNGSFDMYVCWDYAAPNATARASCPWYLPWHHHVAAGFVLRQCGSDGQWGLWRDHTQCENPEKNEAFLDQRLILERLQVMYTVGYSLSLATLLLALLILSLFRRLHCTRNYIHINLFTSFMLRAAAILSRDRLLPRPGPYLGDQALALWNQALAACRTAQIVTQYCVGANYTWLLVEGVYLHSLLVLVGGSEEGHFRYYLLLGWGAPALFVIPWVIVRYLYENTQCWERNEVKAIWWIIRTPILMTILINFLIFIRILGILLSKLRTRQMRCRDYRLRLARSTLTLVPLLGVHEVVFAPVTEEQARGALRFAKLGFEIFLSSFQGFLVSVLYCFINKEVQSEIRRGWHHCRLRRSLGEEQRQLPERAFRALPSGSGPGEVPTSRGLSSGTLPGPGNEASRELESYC


Experiments:
Assay in all cases: cell-based or functional assay
[1] = molecular target: T1, human neuropeptide Y2 receptor
human GLP-1 receptor = human GLP-1 receptor (human, UniProt P43220 24-463)
human GIP receptor = molecular target: T2, human GIP receptor

EC50 hNPY2R 0.5% hP (CreLuc) [1] [nM] | EC50 hNPY2R 100% hP (CreLuc) [1] [nM] | EC50 hGLP1R 0.5% hP (CreLuc) (human GLP-1 receptor) [nM] | EC50 hGLP1R 100% hP (CreLuc) (human GLP-1 receptor) [nM] | EC50 hGIPR 0.5% hP (CreLuc) (human GIP receptor) [nM] | EC50 hGIPR 100% hP (CreLuc) (human GIP receptor) [nM] | Binder
9.56 | 32.5 | 0.14 | 3.86 | 0.46 | 1.23 | Y[Aib]EGTFTSDYSI[Aib]LEKQAQ[Aib]AFVQWLIK([AEEA-AEEA-γGlu-γGlu-γGlu-γGlu-C20 diacid])GGPSEGASLRHYYNWLTRQRY-NH2 (also: TFA salt) [Compound 269]
16.1 | 80 | 0.53 | 21.4 | 0.62 | 2.62 | Y[Aib]EGTFTSDYSI[Aib]LEKQAQ[Aib]EFVEWLIK([γGlu-γGlu-γGlu-γGlu-C20 diacid])GGPSEGASLRHYYNWLTRQRY-NH2 (also: TFA salt) [Compound 271]
19.3 | 76.3 | 0.75 | 19.2 | 0.38 | 1.52 | Y[Aib]EGTFTSDYSI[Aib]LEKQAQ[Aib]EFVEWLIK([AEEA-AEEA-γGlu-γGlu-γGlu-C20 diacid])GGPSEGASLRHYYNWLTRQRY-NH2 (also: TFA salt) [Compound 273]
9.25 | 27.6 | 0.07 | 1.44 | 0.12 | 1.18 | Y[Aib]EGTFTSDYSI[Aib]LEKQAQ[Aib]AFVQWLIK([εLys-γGlu-γGlu-γGlu-γGlu-γGlu-C18 diacid])GGPSEGASLRHYYNWLTRQRY-NH2 (also: TFA salt) [Compound 267]
8.83 | 23 | 0.1 | 2.13 | 0.39 | 0.79 | YXEGTFTSDYSIXLEKQAQXAFVQWLIKGGPSEGASLRHYYNWLTRQRY (Aib at 2, 13, 20; K28 side chain acylated with C18DA-gGlu-gGlu-gGlu-gGlu-gGlu-gGlu-eLys; C-terminal amide (NH2)) [Compound 265]
> 99.9 | 1120 | 0.19 | 1.29 | 0.11 | 0.68 | YXEGTFTSDYSIXLEKQAQXAFVEWLIKGGPSEGASLRHYYNWLTRXRY (Aib at 2, 13, 20; bHGln (beta-homo-L-glutamine) at 47; K28 side chain acylated with C20DA-gGlu-gGlu-gGlu-gGlu-gGlu-gGlu-eLys; C-terminal amide (NH2)) [Compound 277]
19.9 | 60 | 0.5 | 21.7 | 0.27 | 1.75 | YXEGTFTSDYSIXLEKQAQXEFVEWLIKGGPSEGASLRHYYNWLTRQRY (Aib at 2, 13, 20; K28 side chain acylated with C20DA-gGlu-gGlu-gGlu-gGlu-gGlu-gGlu-eLys; C-terminal amide (NH2)) [Compound 275]
32.4 | 103 | 0.72 | 13.4 | 0.71 | 1.76 | Y[Aib]EGTFTSDYSI[Aib]LEKQAQ[Aib]EFVEWLIK([Ahx-γGlu-γGlu-γGlu-γGlu-γGlu-γGlu-C18 diacid])GGPSEGASLRHYYNWLTRQRY-NH2 (also: TFA salt) [Compound 279]
23.8 | 113 | 0.31 | 15.6 | 0.24 | 3.01 | Y[Aib]EGTFTSDYSI[Aib]LEKQAQ[Aib]AFVEWLIK([γGlu-γGlu-γGlu-γGlu-C18 diacid])GGPEEGASLRHYYNWLTRQRY-NH2 (also: TFA salt) [Compound 272]
17.5 | 88.6 | 0.56 | 13 | 0.14 | 1.38 | Y[Aib]EGTFTSDYSI[Aib]LEKQAE[Aib]AFVEWLIKGGPSEGASLRHYYNWLTRQRY-NH2 (not fully specified (residue 28); also: TFA salt) [Compound 278]
15.6 | 91.4 | 0.44 | 14.7 | 0.38 | 2.44 | Y[Aib]EGTFTSDYSI[Aib]LEKQAE[Aib]AFVEWLIK([γGlu-γGlu-γGlu-γGlu-C20 diacid])GGPSEGASLRHYYNWLTRQRY-NH2 (also: TFA salt) [Compound 280]
7.2 | 22.9 | 0.1 | 2.21 | 0.13 | 0.65 | Y[Aib]EGTFTSDYSI[Aib]LEKQAQ[Aib]AFVQWLIK([OEG-OEG-γGlu-γGlu-γGlu-C18 diacid])GGPSEGASLRHYYNWLTRQRY-NH2 (also: TFA salt) [Compound 266]
16.8 | 81.2 | 0.11 | 3.95 | 0.28 | 1.82 | Y[Aib]EGTFTSDYSI[Aib]LEKQAQ[Aib]AFVQWLIK([Glu-Glu-Glu-Glu-Glu-Glu-C18 diacid])GGPSEGASLRHYYNWLTRQRY-NH2 (also: TFA salt) [Compound 264]
20.7 | 73.7 | 0.35 | 16.7 | 0.37 | 1.82 | Y[Aib]EGTFTSDYSI[Aib]LEKQAQ[Aib]EFVEWLIK([γGlu-γGlu-γGlu-γGlu-C18 diacid])GGPSEGASLRHYYNWLTRQRY-NH2 (also: TFA salt) [Compound 276]
18.1 | 74.6 | 0.41 | 17.6 | 0.23 | 1.78 | Y[Aib]EGTFTSDYSI[Aib]LEKQAQ[Aib]EFVEWLIK([AEEA-γGlu-γGlu-γGlu-C18 diacid])GGPSEGASLRHYYNWLTRQRY-NH2 (also: TFA salt) [Compound 274]
9.52 | 21.1 | 0.07 | 1.69 | 0.12 | 0.71 | Y[Aib]EGTFTSDYSI[Aib]LEKQAQ[Aib]AFVQWLIK([AEEA-AEEA-γGlu-γGlu-γGlu-γGlu-C18 diacid])GGPSEGASLRHYYNWLTRQRY-NH2 (also: TFA salt) [Compound 270]
23 | 169 | 0.07 | 1.78 | 0.28 | 0.69 | Y[Aib]EGTFTSDYSI[Aib]LEKQAQ[Aib]AFVQWLIK([Glu-Glu-Glu-Glu-C18 diacid])GGPSEGASLRHYYNWLTRQRY-NH2 (also: TFA salt) [Compound 281]
17.3 | 71.4 | 0.51 | 24.6 | 0.17 | 1.03 | Y[Aib]EGTFTSDYSI[Aib]LEKQAQ[Aib]EFVEWLIK([AEEA-AEEA-γGlu-C18 diacid])GGPSEGASLRHYYNWLTRQRY-NH2 (also: TFA salt) [Compound 282]
9.86 | 47.3 | 0.08 | 1.55 | 0.17 | 1.01 | Y[Aib]EGTFTSDYSI[Aib]LEKQAQ[Aib]AFVQWLIK([γGlu-γGlu-γGlu-γGlu-C18 diacid])GGPSEGASLRHYYNWLTRQRY-NH2 (also: TFA salt) [Compound 268]
